Data from the supplement of paper PMC9170038.

Tested on: MS2 coat protein
Test: apparent KD of MS2 coat protein; designed switch direction (-1 OFF switch, 1 ON switch): 1; higher = weaker reporter binding
In short: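 Apparent KD, taken as the median over clusters for each design, was obtained by curve-fitting normalised cluster fluorescence. Designed RNA switches had been transcribed on Illumina chips by stalled E. coli RNA polymerase and titrated with SNAP-549-labelled MS2 coat protein, doubling from 0.7 or 1.5 nM to 3 µM.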

[1] = input ligand: microRNA oligo, concentration not stated
[2] = Eterna round: R95, input ligand: FMN 200 uM
[3] = Eterna round: R95, input ligand: microRNA oligo, concentration not stated
[4] = Eterna round: R95, input ligand: none

Row | Sequence | apparent KD of MS2 coat protein (input ligand: FMN 200 uM) | apparent KD of MS2 coat protein [1] | apparent KD of MS2 coat protein (input ligand: none) | apparent KD of MS2 coat protein [2] | apparent KD of MS2 coat protein [3] | apparent KD of MS2 coat protein [4]
1 | AACCCAUCGGGAGGAUAUGGCACCUUAUUGGUGCCAGAAGGUCCAACAUGAGGAUCACCCAUGUGGGAGCCGUCGAAAGACGGC [Fiskers NG1ss - 7] (Eterna round: R96, puzzle: Same State NG 1) | 270 nM | 66.5 nM | 293 nM |  |  | 
2 | AACCUACAUGAGGAUCACCCAUGUGUCUAAGGCACAGGAUAUCGACAGGCAAGACGCCUGCGAGAAGGGUGACCUA [Erononer] (puzzle: Same State 1) |  |  |  | 58.7 nM | 34.4 nM | 262 nM
3 | AACGUGGGAGCACAGGAUAUGCAUUGCUCCACAUGAGGAUCACCCAUGUAGGCAAAUAGGGAGCAGCAGAAGGGUGGUCCGACAC [Orraonrexe] (puzzle: Same State 2) |  |  |  | 17.3 nM | 8.24 nM | 21.8 nM
4 | AACUUACGACCACAGGAUAUACUGAGGCGGACAUGAGGAUCACCCAUGUAGGCAAAAUAAGGGCAGUAGAAGGGUGGUCUUUACA [Usbiraxe] (puzzle: Same State 2) |  |  |  | 18.4 nM | 18.8 nM | 27.5 nM
5 | AAGAAACAUGAGGAUCACCCAUGUAGAAAUAUGGGAGGAUAUACGAGGACGAAAGUCAAAGUAGAAGGCCUAAGAA [Mat - Same State 1 - Meechl mod - D130] (Eterna round: R96, puzzle: Same State 1) | 21.4 nM | 54.5 nM | 63.8 nM |  |  | 
6 | AAGCAGAGGCAAGGAUAUGUGAAGACCCAGCCUAGGCUGGGCACAUGAGGAUCACCCAUGUACAAACAGAAGGUGUAACCAGGC [Eternabot solution 18] (Eterna round: R96, puzzle: Same State NG 2) | 40.5 nM | 116 nM | 161 nM |  |  | 
7 | AAGCGCUGUCGAGAGGAUAUGCGGUGAUGGACAUGAGGAUCACCCAUGUUAGCGAUAGCAUUACGGUAGAAGGCUCUACAGCUGA [Mat - Same State 2 - Mod of UCT - D86] (puzzle: Same State 2) |  |  |  | 28.3 nM | 268 nM | 272 nM
8 | AAGGUCUUCGUACAGGAUAUGCACUUGUGCACAUGAGGAUCACCCAUGUGGGAAAAGGUCACAGGGCAGAAGGGUAUUUAUAAAA [Erriti] (puzzle: Same State 2) |  |  |  | 39.4 nM | 66.6 nM | 103 nM
9 | AAGUAGCGAGAGCUACACAAAAAGUUUGUACAUGAGGAUCACCCAUGUUGUACAAGCUUUUUGCUCGUCUUAAAAAA [Mat - Sensor - JL mod - D14] (Eterna round: R96, puzzle: Sensor for hsa-mir-208a) | 77.4 nM | 11.6 nM | 84.1 nM |  |  | 
10 | AAGUGAAUAGUGAUUACAUGAGGAUCACCCAUGUGGUGGAUGCAGGAUAUUAUUAGACCGUACAAUAAGAAGGGCGUAAUCACC [Eternabot solution 44] (Eterna round: R96, puzzle: Same State NG 3) | 226 nM | 270 nM | 403 nM |  |  | 
11 | AAUAAUCUAUCUGAGGAUAUCAUGAAAUAAACAUGAGGAUCACCCAUGUGCAGGAAAACUGCAUAUGAGAAGGCAGAUAGAUUGA [salish99_ss2_r3_020] (puzzle: Same State 2) |  |  |  | 43.8 nM | 551 nM | 1160 nM
12 | AAUAUAUUAAGUGAGGAUAUCGAGGAAAAAACAUGAGGAUCACCCAUGUGGGUAAAAAAAAAAAGUGAGAAGGUGCUUAAUAUAU [Samwise Clockwise 10 - Jieux - Same State 2] (Eterna round: R96, puzzle: Same State 2) | 34.9 nM | 40.1 nM | 69.1 nM |  |  | 
13 | AAUGCACAUGAGGAUCACCCAUGUAAGACAAAGACAGGAUAUGGGCCGCAUGGCUCUGGCCCAGAAGGGUCAGUCG [Biorinin] (puzzle: Same State 1) |  |  |  |  | 19.8 nM | 
14 | AAUUAAGAUUGAGGAUAUCACGUCGAAUAGACGUGAGAAGGCGAUCAUAACAUGAGGAUCACCCAUGUAUUACAUGAAUUAAUU [SSNG1/5-B1] (Eterna round: R96, puzzle: Same State NG 1) | 30.2 nM | 31.9 nM | 32.3 nM |  |  | 
15 | AAUUAAUUAAUACAUGAGGAUCACCCAUGUAAUUAUUAGAUCUAGGAUAUCAGCUCGAAUAGAGCUGAGAAGGAGAUCACAUGU [SSNG3/18-B1] (Eterna round: R96, puzzle: Same State NG 3) |  | 14.5 nM |  |  |  | 
16 | ACAAGCUUUUCUGUAUUGAAAGGUGGGAUACAUGAGGAUCACCCAUGUUUUUUUGUUUAUAUUUGUCCUCGUCUUAU [JR_SHM208A_Sub087] (puzzle: Sensor for hsa-mir-208a) |  |  |  | 52.7 nM | 33.2 nM | 46.7 nM
17 | ACAUGAGACCUAGGAUAUAUUGUACCUACAUGUGACAUGAGGAUCACCCAUGUGGUAAGUAUGACAUAGAAGGAGGAGAUAUGU [Equivalance 93 - Jieux - Same State NG 2] (Eterna round: R96, puzzle: Same State NG 2) | 31.5 nM | 27.2 nM | 54.7 nM |  |  | 
18 | ACAUGAGACCUAGGAUAUCUUGUACCUACAUGUGACAUGAGGAUCACCCAUGUGGUAAGUAUGAUAGAGAAGGAGGAGAUAUGU [Equivalance 55 - Jieux - Same State NG 2] (Eterna round: R96, puzzle: Same State NG 2) | 15.6 nM | 39.8 nM | 51.9 nM |  |  | 
19 | ACAUGAGACUUAGGAUAUCUUGUACCUACAUGUGACAUGAGGAUCACCCAUGUGGUAAGUAUGACAGAGAAGGAAGAGAUAUGU [Equivalance 68 - Jieux - Same State NG 2] (Eterna round: R96, puzzle: Same State NG 2) | 40.4 nM | 49.9 nM | 79.7 nM |  |  | 
20 | ACAUGAGACUUAGGAUAUCUUGUACCUACAUGUGACAUGAGGAUCACCCAUGUGGUAAGUAUGAGGGAGAAGGAAGAGAUAUGU [Equivalence 38 - Jieux - Same State NG 2] (Eterna round: R96, puzzle: Same State NG 2) | 30.8 nM | 21 nM | 33.9 nM |  |  | 
21 | ACAUGAGAGAAAGGAUAUCAUGUACCUACAUGUGACAUGAGGAUCACCCAUGUGGUAAGUAUGAGUGAGAAGGUUCAGAUAUGU [Equivalence 34 - Jieux - Same State NG 2] (Eterna round: R96, puzzle: Same State NG 2) | 44.4 nM | 298 nM | 448 nM |  |  | 
22 | ACAUGAGAUCUAGGAUAUAUAGUACCUACAUGUGACAUGAGGAUCACCCAUGUGGUAAGUAUGACAUAGAAGGAGAAGAUAUGU [Equivalance 96 - Jieux - Same State NG 2] (Eterna round: R96, puzzle: Same State NG 2) | 37.2 nM | 50.9 nM | 55.5 nM |  |  | 
23 | ACAUGAGGAUCACCCAUGUAUAGAAUUGAAUGUUAAGAUACGUAGGAUAUCGAGUUUAGUAUGAUCGAGAAGGACGAUCUGAUA [JR_SSNG3_Sub065] (Eterna round: R96, puzzle: Same State NG 3) |  | 14.5 nM |  |  |  | 
24 | ACCAAUCCAAUAAAACAAGCGUGCUCGUCACAUGAGGAUCACCCAUGUUCAAGCGCUGUUCCUAAUUCCUCAGCGCC [Ortiat] (puzzle: Sensor for hsa-mir-208a) |  |  |  | 72.3 nM | 22.3 nM | 67.7 nM
25 | ACGCAGCUGGGCAAGGAUAUCGGUGGUAAAACAUGAGGAUCACCCAUGUCCGAAGCUCGGACUUCCGAGAAGGUGCCCGGCUGCG [Soinraesar Omei Mod 8] (puzzle: Same State 2) |  |  |  | 20.1 nM | 119 nM | 238 nM
26 | ACUAGAUCGAAAGAUCUAGAAAACGAGUAACAUGAGGAUCACCCAUGUUCAUGUUGCUCGUCUUAAGCCGAAAGGCG [JL ALT 15] (Eterna round: R96, puzzle: Sensor for hsa-mir-208a) | 71.5 nM | 38 nM | 22.8 nM |  |  | 
27 | ACUCAGUACAAUUUAGAUCUACAUGAGGAUCACCCAUGUACUGAGGAUAUCAGCUCGAAUAGAGCUGAGAAGGCAGUUGUACUA [SSNG3/10-A1] (Eterna round: R96, puzzle: Same State NG 3) | 102 nM | 138 nM | 248 nM |  |  | 
